From PMC6486709

Substrate: C/C(=C\Cc1c(O)c(Cl)c(C)c(C=O)c1O)CC/C=C(\C)[C@@H](O)C[C@@H]1OC1(C)C
Assay: cells, lysate or membranes
Conditions: microsomal fraction of ascI-expressing yeast

B1: AscI (Acremonium egyptiacum) (protein)
chain: MPQLAGKLILAGLIPLGAWVLHGFASCNGLIQMFEDFGKQTVLSDGVTDYTGAFTGLEGLDRLLRTLLNFFWPVANGHDWALSLHAFMFAGQGVPLLVLNMLEGARPGNKSLVVSYVTVFGILYMVVGLAIMAPLYLFLHLLTSRTATAPSKAKVAVDPNTAKAVGFGVFVGYVLPTIFMSLPHPSLLSTDTKVLSVVFWQAVPLWASVCAYFASTALGQSATSRSSSNLPSALGAVYAASLIIATATHVATFAISANLSDTWSGIFTFLIPPNPFNTDMRISSFLEGATWFLQWDYTMMSLAYMVWAIGIRHGVEVPRSSHHFETLGKIALRSMAKLLVMGPIGAALSLVWERDQLLWQLDSESGEKGEKNRSRRMSRKWMFS
- Km: 50.4 ± 11.1 µM
